# Test results published in patent publication US20240409645A1.
# Positions count from the first letter of the chain named.
# T1: mouse IL-2Rα (mouse) (UniProt P01590)
# T1 sequence (looked up): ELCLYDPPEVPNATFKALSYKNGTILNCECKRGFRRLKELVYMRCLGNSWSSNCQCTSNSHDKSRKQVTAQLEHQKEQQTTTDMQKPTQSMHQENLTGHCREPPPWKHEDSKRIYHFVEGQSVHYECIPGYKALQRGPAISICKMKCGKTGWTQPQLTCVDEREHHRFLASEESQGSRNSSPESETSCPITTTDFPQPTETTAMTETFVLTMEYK
# T2: mouse IL-2Rβ (mouse) (UniProt P16297)
# T2 sequence (looked up): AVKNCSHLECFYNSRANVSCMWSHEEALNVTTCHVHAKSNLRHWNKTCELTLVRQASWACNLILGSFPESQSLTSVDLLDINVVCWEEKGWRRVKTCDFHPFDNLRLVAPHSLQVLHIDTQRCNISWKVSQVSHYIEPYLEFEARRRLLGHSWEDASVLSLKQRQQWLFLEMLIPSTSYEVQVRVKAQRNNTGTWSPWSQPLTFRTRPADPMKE
# T3: cynomolgus monkey IL-2Rβ/CD122 subunit (cynomolgus monkey) (UniProt Q38J85)
# T3 sequence (looked up): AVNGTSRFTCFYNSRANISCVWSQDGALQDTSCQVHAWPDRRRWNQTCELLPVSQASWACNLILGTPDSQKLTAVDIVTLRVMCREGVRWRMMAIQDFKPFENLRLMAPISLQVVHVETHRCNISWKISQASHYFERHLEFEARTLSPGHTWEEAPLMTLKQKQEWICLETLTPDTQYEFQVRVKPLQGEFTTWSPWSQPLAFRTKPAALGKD
# T4: human common cytokine receptor γ-chain (γc; IL-2Rγ; CD132), recombinant protein (human) (UniProt P31785)
# T4 sequence: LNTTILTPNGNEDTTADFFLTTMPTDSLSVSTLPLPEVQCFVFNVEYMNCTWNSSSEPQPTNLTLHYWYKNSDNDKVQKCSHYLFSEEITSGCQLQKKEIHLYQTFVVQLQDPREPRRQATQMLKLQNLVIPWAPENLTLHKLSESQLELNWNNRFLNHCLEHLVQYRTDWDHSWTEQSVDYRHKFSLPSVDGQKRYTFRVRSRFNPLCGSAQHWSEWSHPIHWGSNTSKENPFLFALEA
# T5: human interleukin-2 receptor β-chain (IL-2Rβ; CD122), recombinant protein (human) (UniProt P14784)
# T5 sequence: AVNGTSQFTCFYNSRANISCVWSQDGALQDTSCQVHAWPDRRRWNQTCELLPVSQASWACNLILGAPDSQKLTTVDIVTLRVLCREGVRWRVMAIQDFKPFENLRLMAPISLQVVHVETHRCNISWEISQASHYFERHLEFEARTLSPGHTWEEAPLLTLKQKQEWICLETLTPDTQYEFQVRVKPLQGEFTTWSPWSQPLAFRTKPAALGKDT
# B1: 6-MP01G05 VHH (periplasmic extract) (VHH)
# VHH: QVQLQESGGGLVQAGGSLRLSCAASGRTFSSYAMGWFRQAPGKEREFVAVISWNVDNTEYTDSVKGRFTISRDNDKNMVYLQMNSLKPEDTAVYYCAADSIPLSSDMSPTATEYGYWGQGTQVTVSS
# B2: 3-MP01E03 VHH (periplasmic extract) (VHH)
# VHH: QVQLVESGGGLVQAGGSLRLSCTASGRTLSSYSMAWFRQAADKGREFVTAISSSGVVTHVLDSVKGRFTISRDNAKNTVYLQMNSLQPEDTALYFCAGTASSYSTYEANYNYWGQGTLVTVSS
# B3: 5-MP01F05 VHH (periplasmic extract) (VHH)
# VHH: EVQLVESGGGLVQAGGSLRLSCAASIRAFTTWSMAWFRQAPGKEREYVARINVSGSVTYYADFVKGRFTISRDNAKKTMYLEMNNLKPEDTALYYCAADRTGVGTNDYNYWGQGTQVTVSS
# B4: 2-MP01A02 VHH (periplasmic extract) (VHH)
# VHH: QVQLVESGGGLVQPGGSLRLSCATSGFTFRNNFMSWVRQAPGKGLEWVSTISYGGESTTYAESVKGRFTISRDNAKNTLYLQMNNLKPEDTAVYYCAKATSYDSIRSGSRGQGTQVTVSS
# B5: 8-MP01C12 VHH (periplasmic extract) (VHH)
# VHH: B4 VHH with R30S, W47F, S63A, V93I, D103T, S107G, G108A, S109P
# B6: 1-MP01H01 VHH (periplasmic extract) (VHH)
# VHH: EVQLVESGGGLVQAGGSLRLSCAASGRTFRTHNMGWFRRAPGKEREFVAAISWNVDNTLYADSVKGRFTISRDNGRNMVYLQMNSLKPEDTAVYYCAADNIPLSSDVAATATEYDYWGQGTQVTVSS
# B7: 24-MP06E05 VHH (periplasmic extract) (VHH)
# VHH: QVQLVESGGELVQGGASLRLSCAASGRTFSNANMAWFRQAPEKEREFVALITWSSGSTLYADSVKGRFTISRDNARKMVYLQMNSLKPEDTAVYYCAADGPPYSGTYYRYDTYDYWGQGTQVTVSS
# B8: 22-MP03F12 VHH (periplasmic extract) (VHH)
# VHH: EVQLVESGGGLVQAGGSLRLSCAASGSIFSINAMAWFRQVPGMERELVAAISRDGGASVYRDSVKGRFTISRDNSKNTVYLQMNTLKPEDTAIYVCAATRAIGWTARWITTDFDFWGQGTQVTVSS
# B9: 18-MP03C03 VHH (periplasmic extract) (VHH)
# VHH: QVQLVESGGGLVQPGGSLRLSCAISGGTLDSYGIGWVRQAPGKQREGVSCMSRSDDRTYYADSVKGRFTISKDSAKNTVYLQMTSLKPEDTAVYYCAAVDAYGCSLVQPTTYDFWGLGTQVTVSS
# B10: 15-MP02E06 VHH (periplasmic extract) (VHH)
# VHH: QVQLVESGGGSVQPGGSLRLSCAASGFTFSNYAMSWVRQAPGKGLEWVASITGFGRGTDYADSVKGRFTISRDNAEDTLYLQMNSLKPEDTAVYYCAKYSSSTYYPPTPARGRDYRGQGTQVTVSS
# B11: 24-MP06E05 VHH-hFc, monospecific monovalent (Fc fusion, part only; not given: Both Fc arms and linker, not shown: another chain or arm of the molecule; a dimerising Fc or GST; large carriers; small tags and cut ends)
# VHH: B7 VHH
# B12: 22-MP03F12 VHH-hFc, monospecific monovalent (Fc fusion, part only; not given: Both Fc arms and linker, not shown: another chain or arm of the molecule; a dimerising Fc or GST; large carriers; small tags and cut ends)
# VHH: B8 VHH
# B13: 16-MP02B08 VHH-hFc, monospecific monovalent (Fc fusion, part only; not given: Both Fc arms and linker, not shown: another chain or arm of the molecule; a dimerising Fc or GST; large carriers; small tags and cut ends)
# VHH: EVQLVESGGGLVQAGGSLRLSCAASGRAIENYPVGWFRQAPGKEREFVAAITWISGSTLYADSVKGRFTISRDNAKNTVYLQMSSLKPEDTALYYCAAALKTITRGQNDYSYWGQGTQVTVSS
# B14: 17-MP02C09 VHH-hFc, monospecific monovalent (Fc fusion, part only; not given: Both Fc arms and linker, not shown: another chain or arm of the molecule; a dimerising Fc or GST; large carriers; small tags and cut ends)
# VHH: QVQLQESGGGLVQAGGSLRLSCVASGSVSSINGMAWYRQGADNQRVLVAAISRVGNTAYGDSVKGRFTISRQNARNTVYLQMNSLKPEDTAVYYCNADSWGGDDYWGQGTQVTVSS
# B15: 19-MP03F08 VHH-hFc, monospecific monovalent (Fc fusion, part only; not given: Both Fc arms and linker, not shown: another chain or arm of the molecule; a dimerising Fc or GST; large carriers; small tags and cut ends)
# VHH: EVQLVESGGGLVQTGGSLRLSCAASGGTFSRDAMAWFRQVPGKEREFVALISWSGATTNYADSVKGRFAISRDNGKNTVYLQMNRLKPADTAIYYCAADRRPMGSRSYFEPTEYDDWGQGTQVTVSS
# B16: 23-MP06F03 VHH-hFc, monospecific monovalent (Fc fusion, part only; not given: Both Fc arms and linker, not shown: another chain or arm of the molecule; a dimerising Fc or GST; large carriers; small tags and cut ends)
# VHH: QVQLVESGGGLVQAGGSLRLSCAVSGDVFVRYTMAWFRQAPGKEREFVASVTDSGRTTDYVHSVKGRFTVSRDNAKNTVYLQMNNLKPEDTAVYYCAANTDYFQIKSLDANTWGQGTQVTVSS
# B17: 26-MP06A07 VHH-hFc, monospecific monovalent (Fc fusion, part only; not given: Both Fc arms and linker, not shown: another chain or arm of the molecule; a dimerising Fc or GST; large carriers; small tags and cut ends)
# VHH: B16 VHH with V5Q, V24A, D59E, H62D, V79A, V93I, K106R, A110L
# B18: 28-MP04D02 VHH-hFc, monospecific monovalent (Fc fusion, part only; not given: Both Fc arms and linker, not shown: another chain or arm of the molecule; a dimerising Fc or GST; large carriers; small tags and cut ends)
# VHH: QVQLVESGGGLVQAGGSLRLSCAASGRTLSRYAMGWFRQAPGKEREFVTANSWGGDTYYADSVQGRFTFSRDNAKNTVYLQMNSLQPEDTAVYYCAAAPTSFATTAYSGSNSYAYWGQGTQVTVSS
# B19: 37-MP07F09 VHH-hFc, monospecific monovalent (Fc fusion, part only; not given: Both Fc arms and linker, not shown: another chain or arm of the molecule; a dimerising Fc or GST; small tags and cut ends)
# VHH: B18 VHH with F47Y, T49A, A50I, N51D, Y58F, Q64E, T77E, A97G, G109S, A114R
# B20: 36-MP07F02 VHH-hFc, monospecific monovalent (Fc fusion, part only; not given: Both Fc arms and linker, not shown: another chain or arm of the molecule; a dimerising Fc or GST; small tags and cut ends)
# VHH: B18 VHH with K43S, T49A, N51S, Y58F, Q64E, T77A, V92A, A103P, G109S
# B21: 38-MP07A11 VHH-hFc, monospecific monovalent (Fc fusion, part only; not given: Both Fc arms and linker, not shown: another chain or arm of the molecule; a dimerising Fc or GST; small tags and cut ends)
# VHH: QVQLVESGGGLVQAGGSLRLSCAASGRSLSRDAMGWFRQAPGKEREFVAVMSWGGDTFYTDSVEGRFTFSRDNAKNAVYLEMNDLQPEDTAVYYCAAAPTSFATTAYSSSNSYSYWGRGTQVTVSS
# B22: 27-MP04G01 VHH-hFc, monospecific monovalent (Fc fusion, part only; not given: Both Fc arms and linker, not shown: another chain or arm of the molecule; a dimerising Fc or GST; large carriers; small tags and cut ends)
# VHH: QVQLVESGGGLVQAGGSLTLSCAAPGRTFGTDVVGWFRQAPGKEREFVASISRSGDGIYYDDSVKGRFTISRNNAWNTVNLQMNSLKVEDTAVYYCAAGDGWSTYDYWGQGTQVTVSS
# B23: 34-MP04A12 VHH-hFc, monospecific monovalent (Fc fusion, part only; not given: Both Fc arms and linker, not shown: another chain or arm of the molecule; a dimerising Fc or GST; large carriers; small tags and cut ends)
# VHH: QVQLVESGGGLVQAGSSLRLSCAASGRTLSRLAMGWFRQAPGKEREFVAVNSWGGDTFYADSVEGRFTYSRDNAKSAVYLQMNSLQPEDTAVYYCAAAPTSFATTAYSSSNSYAYWGQGAQVTVSS
# B24: 29-MP04H02 VHH-hFc, monospecific monovalent (Fc fusion, part only; not given: Both Fc arms and linker, not shown: another chain or arm of the molecule; a dimerising Fc or GST; large carriers; small tags and cut ends)
# VHH: QVQLVESGGGLVQAGGSLRLACVASGLTFDNYYMGWFRQAPGKEREFVAGIIWNGDHTAYADSIKGRFTISRDNAKNTAYLRMNSLKPEDTAVYYCAATFWIERATTPDIGQYAYWGQGTQVTVSS
# Molecular target: T1, mouse IL-2Rα (mouse)
# Experiment: P.E. binding ELISA
row,OD450 nm [OD450 nm],Binder
1,0.046,B1
2,0.046,B2
3,0.046,B3
4,0.046,B4
5,0.045,B5
6,0.048,B6

# Molecular target: T2, mouse IL-2Rβ (mouse)
# Experiment: P.E. binding ELISA
row,OD450 nm [OD450 nm],Binder
1,0.046,B7
2,0.048,B8
3,0.048,B9
4,0.048,B10

# Molecular target: T3, cynomolgus monkey IL-2Rβ/CD122 subunit (cynomolgus monkey)
# Experiment: ELISA, monovalent VHH-hFc
row,EC50 [nM],Binder
1,0.657,B11
2,0.156,B12
3,0.28,B13
4,0.495,B14
5,0.953,B15
6,0.26,B16
7,0.102,B17

# Molecular target: cynomolgus monkey IL-2Rγ/CD132 subunit (cynomolgus monkey)
# Experiment: ELISA, monovalent VHH-hFc
# cynomolgus monkey IL-2Rγ/CD132 subunit (cynomolgus monkey), sequence (chain, as listed by the source): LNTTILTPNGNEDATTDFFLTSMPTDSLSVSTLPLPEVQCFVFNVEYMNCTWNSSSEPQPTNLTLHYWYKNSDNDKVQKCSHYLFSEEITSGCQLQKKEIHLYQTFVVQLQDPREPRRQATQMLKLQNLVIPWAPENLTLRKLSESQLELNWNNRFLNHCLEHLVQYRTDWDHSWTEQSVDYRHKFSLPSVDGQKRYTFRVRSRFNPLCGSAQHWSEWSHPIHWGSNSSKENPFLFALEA
row,EC50 [nM],Binder
1,0.723,B18
2,0.097,B19
3,0.222,B20
4,0.16,B21
5,0.153,B22
6,0.158,B23
7,0.534,B24

# Molecular target: T4, human common cytokine receptor γ-chain (γc; IL-2Rγ; CD132), recombinant protein (human)
# Experiment: ELISA, monovalent VHH-hFc
row,EC50 [nM],Binder
1,0.62,B18
2,0.081,B19
3,0.145,B20
4,0.107,B21
5,0.155,B22
6,0.132,B23
7,0.683,B24

# Molecular target: T5, human interleukin-2 receptor β-chain (IL-2Rβ; CD122), recombinant protein (human)
# Experiment: ELISA, monovalent VHH-hFc
row,EC50 [nM],Binder
1,0.206,B11
2,0.092,B12
3,0.215,B13
4,0.148,B14
5,0.67,B15
6,0.174,B16
7,0.086,B17

# Molecular target: T3, cynomolgus monkey IL-2Rβ/CD122 subunit (cynomolgus monkey)
# Experiment: ELISA, monovalent; EC50 cyno vs human subunit
row,Fold change [fold],Binder
1,3.2,B11
2,1.7,B12
3,1.3,B13
4,3.3,B14
5,1.4,B15
6,1.5,B16
7,1.2,B17

# Molecular target: cynomolgus monkey IL-2Rγ/CD132 subunit (cynomolgus monkey)
# Experiment: ELISA, monovalent; EC50 cyno vs human subunit
row,Fold change [fold],Binder
1,1.2,B18
2,1.2,B19
3,1.5,B21
4,1,B22
5,1.2,B23
6,0.8,B24
